Molecular target: HA trimer from A/New Caledonia/20/1999 (H1N1), soluble trimerized HA ectodomain (Influenza A virus A/New Caledonia/20/1999 (H1N1))
Experiment: SEC

HA trimer from A/New Caledonia/20/1999 (H1N1), soluble trimerized HA ectodomain (domain or fragment)
stoichiometry N: 3

— PMC7241686
